Results from article PMC3308208, “Disassembly and reassembly of human papillomavirus virus-like particles produces more virion-like antibody reactivity” (Virology Journal, 2012).

Biological target: the molecule itself
Test: cryo-EM imaging; post-D/R HPV16 VLPs, undiluted, in vitrified ice on holey carbon films; Tecnai F20 at 120 keV

B1: HPV16 L1 virus-like particles (VLPs) (natural protein)
chain: MSLWLPSEATVYLPPVPVSKVVSTDEYVARTNIYYHAGTSRLLAVGHPYFPIKKPNNNKILVPKVSGLQYRVFRIHLPDPNKFGFPDTSFYNPDTQRLVWACVGVEVGRGQPLGVGISGHPLLNKLDDTENASAYAANAGVDNRECISMDYKQTQLCLIGCKPPIGEHWGKGSPCTNVAVNPGDCPPLELINTVIQDGDMVDTGFGAMDFTTLQANKSEVPLDICTSICKYPDYIKMVSEPYGDSLFFYLRREQMFVRHLFNRAGAVGENVPDDLYIKGSGSTANLASSNYFPTPSGSMVTSDAQIFNKPYWLQRAQGHNNGICWGNQLFVTVVDTTRSTNMSLCAAISTSETTYKNTNFKEYLRHGEEYDLQFIFQLCKITLTADVMTYIHSMNSTILEDWNFGLQPPPGGTLEDTYRFVTSQAIACQKHTPPAPKEDPLKKYTFWEVNLKEKFSADLDQFPLGRKFLLQAGLKAKPKFTLGKRKATPTTSSTSTTAKRKKRKL
notes: major capsid protein L1 of human papillomavirus type 16, full length, self-assembled into VLPs; The same L1 protein was tested as pre-D/R VLPs (purified only) and as post-D/R VLPs (disassembled and reassembled); The T = 7 count of 360 copies is stated only in the background; also called HPV 16 L1 VLPs; post-D/R VLPs; source: over expressed in yeast, purified VLPs; post-D/R lots after disassembly …
binding result: binds
